Measurements from patent US12527876B2, “Insulin-like growth factor-chemotherapeutic conjugate for treating myelodysplastic syndrome” (IGF Oncology, LLC, priority 2017, dated 2026).

Tests used:
IGF receptors = IGF receptors (Homo sapiens, UniProt P08069); assay: Competition binding of refolded IGF fusion proteins to IGF receptors against radioactive wild type IGF (Example 2); conditions: refolded 3 hours at room temperature, read-out: approximate binding constants (KDs)
Experimental: 2 ml of each of the original Ni eluates from Example 1 was mixed with about an equal volume of 100 mM glycine, 6 M urea, pH 9.5, concentrated by ultrafiltration in a CENTRICON 3 kDa filter unit, then brought up again in that buffer and concentrated to about 420 ul. Then they were diluted to 2 mg/ml for 403IGF, 764IGF, and 765IGF, and 4 mg/ml for 784IGF and 2.4 mg/ml for 785IGF.
200 ul of each of these was mixed rapidly with 1.8 ml of refold buffer. Refold buffer was 1.4 M urea, 100 mM glycine, 0.5 M NaCl, 19% ethanol, 0.5 mM GSSG, 4 mM GSH, pH 9.5. They were refolded at room temperature for 3 hours, and then tested in a binding assay for competition binding to IGF receptors against […] radioactive wild type IGF (Perkin Elmer, Inc.) For comparison, commercial Long-R3-IGF (LR3IGF) was also tested.

[1] = target: T1, type 1 IGF receptors (IGF-1R) on MCF7 cells (Homo sapiens, UniProt P08069); assay: Competition binding assay to IGF-1 receptor on MCF7 cells versus I-125-labeled IGF-1; conditions: FIG. 1 assay
T1 construct: type 1 IGF receptors that are abundant on MCF7 cells; host or cells: MCF7
Experimental: Theory of assay: Radioactive ^125I labeled insulin-like growth factor-1 (IGF-1) competes with a test ligand for binding to type 1 IGF receptors that are abundant on MCF7 cells (a human breast cancer cell line) in vitro.
MCF7 cell media: 500 mL MEM, 0.01 mg/mL bovine insulin; 5 mL sodium pyruvate, 5 mL non-essential amino acids, 10 mL sodium bicarbonate, 10 mL fetal bovine serum, 5 mL penicillin/streptomycin.
MCF7 cells (ATCC HTB-22) were plated at 20,000 cells per well in a volume of 0.5 mL/well in a 48-well tissue culture plate (flat bottom with low evaporation lid) and placed in a cell culture incubator set at 37° C. with 5% CO2. After 2-3 days in culture the plates were washed 2× with 0.5 mL per well of cold binding assay buffer (100 mM Hepes-NaOH, pH 7.2; 120 mM NaCl; 5 mM KCl; 1.2 mM MgSO4; 0.1% BSA). After the final wash, 0.5 mL of binding assay buffer was added to each well and the plates are placed at 4° C. for 2 to 6 hours.
Test ligands were prepared at a concentration of 10 micromolar (long-R3-IGF) or 20 micromolar (765IGF and IGF-MTX) in 5 mM HCl in a volume of 200 ul. […] For long-R3, the lyophilized commercial material is dissolved at 1.0 mg/ml in 10 mM HCl and this is diluted to a concentration of 91 ug/ml for a 10 uM solution. […]
The plates were then incubated overnight at 4° C. […] Cells were lysed with 0.5 mL 300 mM NaOH, 1% SDS and the lysates were counted on a gamma counter.

[2] = test system: soluble IGF binding proteins; conditions: compared to wild-type IGF-1; Francis 1992, Tomas 1993, U.S. Pat. No. 4,876,242; cited from earlier work

IGF receptors, sequence (P08069 31-736 limits assumed): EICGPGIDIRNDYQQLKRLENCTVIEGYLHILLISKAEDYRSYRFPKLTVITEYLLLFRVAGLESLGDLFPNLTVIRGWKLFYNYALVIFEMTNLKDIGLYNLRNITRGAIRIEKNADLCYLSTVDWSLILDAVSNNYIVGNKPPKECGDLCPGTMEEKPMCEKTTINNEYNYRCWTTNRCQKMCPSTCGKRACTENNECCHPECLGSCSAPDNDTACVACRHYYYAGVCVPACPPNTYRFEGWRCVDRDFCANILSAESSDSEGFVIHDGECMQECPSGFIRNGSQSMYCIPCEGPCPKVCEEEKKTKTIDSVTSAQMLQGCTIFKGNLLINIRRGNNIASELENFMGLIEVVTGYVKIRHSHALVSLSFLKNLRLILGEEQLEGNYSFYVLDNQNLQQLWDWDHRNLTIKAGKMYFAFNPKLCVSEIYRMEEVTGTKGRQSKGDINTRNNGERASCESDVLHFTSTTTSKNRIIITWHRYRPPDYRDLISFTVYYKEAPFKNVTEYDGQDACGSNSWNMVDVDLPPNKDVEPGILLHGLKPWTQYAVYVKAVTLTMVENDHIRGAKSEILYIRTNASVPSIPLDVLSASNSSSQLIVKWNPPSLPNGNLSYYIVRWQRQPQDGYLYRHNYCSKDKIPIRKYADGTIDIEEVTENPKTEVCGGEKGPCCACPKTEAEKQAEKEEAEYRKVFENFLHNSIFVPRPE
IGF receptors, sequence (P08069 741-1367 partner limits assumed): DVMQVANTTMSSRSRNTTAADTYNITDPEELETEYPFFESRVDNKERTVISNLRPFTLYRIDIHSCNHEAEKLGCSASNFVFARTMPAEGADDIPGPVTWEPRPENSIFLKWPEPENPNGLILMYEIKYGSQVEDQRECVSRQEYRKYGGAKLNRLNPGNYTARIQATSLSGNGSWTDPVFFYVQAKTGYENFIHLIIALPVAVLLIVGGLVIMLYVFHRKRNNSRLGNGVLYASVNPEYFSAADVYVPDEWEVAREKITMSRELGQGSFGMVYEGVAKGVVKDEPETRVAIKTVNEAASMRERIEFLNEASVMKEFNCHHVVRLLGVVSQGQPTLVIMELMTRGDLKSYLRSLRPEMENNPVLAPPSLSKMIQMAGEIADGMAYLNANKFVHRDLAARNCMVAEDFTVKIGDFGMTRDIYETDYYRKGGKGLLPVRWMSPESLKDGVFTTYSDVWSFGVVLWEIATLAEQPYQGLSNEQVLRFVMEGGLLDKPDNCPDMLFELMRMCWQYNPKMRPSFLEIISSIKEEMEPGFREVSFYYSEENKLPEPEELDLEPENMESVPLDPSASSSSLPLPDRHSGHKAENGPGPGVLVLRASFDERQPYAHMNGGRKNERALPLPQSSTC
T1 sequence (P08069 31-736 limits assumed): as the sequence (P08069 31-736 limits assumed) above
T1 sequence (P08069 741-1367 partner limits assumed): as the sequence (P08069 741-1367 partner limits assumed) above

Kd (IGF receptors): ~1 nM
Kd [1]: ~3 nM
B1: LR3IGF: commercial Long-R3-IGF, variant of IGF-1, SEQ ID NO: 5 (protein)
chain: MFPAMPLSSLFVNGPRTLCGALVDALQFVCGDRGFYFNKPTGYGSSSRRAPQTGIVDECCFRSCDLRRLEMYCAPLKPAKSEA
binding affinity to the soluble IGF binding proteins [2]: reduced binding affinity
